Article PMC11022532

Molecular target: CslA-His12 (cellulose synthase-like protein CslA from Streptomyces lividans, full length, C-terminal 12-histidine tag) (Streptomyces lividans)

activity (UDP release) of the CslA–GlxA^12-261 complex against the wild-type CslA–GlxA complex: 40%
Substance: Flag-tagged GlxA^12-261 (truncated GlxA lacking Region-2 and Domain 3) (domain or fragment)
